Test results: US20090280535, “SUMO Fusion Protein Expression System for Producing Native Proteins” (Academia Sinica, published 2009)

What follows are binders tested against T1, RecA (Escherichia coli, UniProt P0A7G6 P0A7G6:2-353) (assay: competition; 80 uM oligo competes against 8 uM ds-PhiX174 in EMSA). Conditions: tags: none (released from His6-Smt3-RecA by Ulp1 403-621 cleavage).
T1 sequence (P0A7G6 2-353, one chain of several): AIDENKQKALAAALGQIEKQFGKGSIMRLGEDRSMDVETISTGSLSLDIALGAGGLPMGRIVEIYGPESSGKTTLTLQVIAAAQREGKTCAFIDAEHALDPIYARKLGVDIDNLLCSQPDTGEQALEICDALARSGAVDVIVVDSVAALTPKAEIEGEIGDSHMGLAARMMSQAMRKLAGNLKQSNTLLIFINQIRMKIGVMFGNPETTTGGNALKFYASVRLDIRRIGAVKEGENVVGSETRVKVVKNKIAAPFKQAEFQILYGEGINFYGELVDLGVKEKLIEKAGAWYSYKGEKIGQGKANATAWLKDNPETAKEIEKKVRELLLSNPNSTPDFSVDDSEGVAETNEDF
Method: (§1) The biological activities of the purified RecA protein was tested as follows. First, an electrophoretic mobility shift assay was performed to examine whether the RecA protein was capable of binding to DNA, following the method described in Chen et al., Proc. Natl. Acad Sci USA 101: 10572-10577 (2004). […] Six oligonucleotides, i.e., (CT)₂₀, (CA)₂₀, (GT)₂₀, (GA)₂₀, (AT)₂₀, and (CG)₂₀ described in Biet et al., Nucleic Acids Res 27:596-600 (1999), were used to determine the preference of the RecA protein for binding to double-strand (ds) or single-strand (ss) DNAs. 80 μM of each of the oligonucleotides was incubated with the RecA protein in the presence of circular ds-ΦX174 (8 μM) DNA and then a mobility shift assay was performed to examine the binding between the RecA protein and the ds- or ss-DNAs.
CACACACACACACACACACACACACACACACACACACACA (ssDNA) [(CA)20]: binds. GTGTGTGTGTGTGTGTGTGTGTGTGTGTGTGTGTGTGTGT (ssDNA) [(GT)20]: binds. GAGAGAGAGAGAGAGAGAGAGAGAGAGAGAGAGAGAGAGA (ssDNA) [(GA)20]: binds. ATATATATATATATATATATATATATATATATATATATAT (ssDNA) [(AT)20]: binds. CGCGCGCGCGCGCGCGCGCGCGCGCGCGCGCGCGCGCGCG (ssDNA) [(CG)20]: binds.

These binders were tested against T1, RecA (assay: competition; 80 uM oligo competes against 8 uM ds-PhiX174 in EMSA; no significant effect at 2, 4 or 8 uM). Conditions: tags: none (released from His6-Smt3-RecA by Ulp1 403-621 cleavage).
Method: as §1
CTCTCTCTCTCTCTCTCTCTCTCTCTCTCTCTCTCTCTCT (ssDNA) [(CT)20]: binds.
